US20120164659A1 (NEXIGEN, published 2012)

B1: Interferone-induced guanylate binding protein-2 (GBP2), prey fusion with myristoylation signal from the human hepatocyte cDNA library (other)
chain: MAPEINLPGPMSLIDNTKGQLVVNPEALKILSAITQPVVVVAIVGLYRTGKSYLMNKLAGKKNGFSLGSTVKSHTKGIWMWCVPHPKKPEHTLVLLDTEGLGDIEKGDNENDSWIFALAILLSSTFVYNSMGTINQQAMDQLHYVTELTDRIKANSSPGNNSVDDSADFVSFFPAFVWTLRDFTLELEVDGEPITADDYLELSLKLRKGTDKKSKSFNDPRLCIRKFFPKRKCFVFDWPAPKKYLAHLEQLKEEELNPDFIEQVAEFCSYILSHSNVKTLSGGIPVNGPRLESLVLTYVNAISSGDLPCMENAVLALAQIENSAAVEKAIAHYEQQMGQKVQLPTETLQELLDLHRDSEREAIEVFMKNSFKDVDQMFQRKLGAQLEARRDDFCKQNSKASSDCCMALLQDIFGPLEEDVKQGTFSKPGGYRLFTQKLQELKNKYYQVPRKGIQAKEVLKKYLESKEDVADALLQTDQSLSEKEKAIEVERIKAESAEAAKKMLEEIQKKNEEMMEQKEKSYQEHVKQLTEKMERDRAQLMAEQEKTLALKLQEQERLLKEGFENESKRLQKDIWDIQMRSKSLEPICNIL
modifications: myristoylation signal at the N-terminus (membrane localisation)
notes: also called NM-004120; not shown: myristoylation signal of the pmyr library vector
B2: membrane-associated Ring-finger 7 (MARCH7), prey fusion with myristoylation signal from the human hepatocyte cDNA library (other)
chain: MESKPSRIPRRISVQPSSSLSARMMSGSRGSSLNDTYHSRDSSFRLDSEYQSTSASASASPFQSAWYSESEITQGARSRSQNQQRDHDSKRPKLSCTNCTTSAGRNVGNGLNTLSDSSWRHSQVPRSSSMVLGSFGTDLMRERRDLERRTDSSISNLMDYSHRSGDFTTSSYVQDRVPSYSQGARPKENSMSTLQLNTSSTNHQLPSEHQTILSSRDSRNSLRSNFSSRESESSRSNTQPGFSYSSSRDEAPIISNSERVVSSQRPFQESSDNEGRRTTRRLLSRIASSMSSTFFSRRSSQDSLNTRSLNSENSYVSPRILTASQSRSNVPSASEVPDNRASEASQGFRFLRRRWGLSSLSHNHSSESDSENFNQESEGRNTGPWLSSSLRNRCTPLFSRRRREGRDESSRIPTSDTSSRSHIFRRESNEVVHLEAQNDPLGAAANRPQASAASSSATTGGSTSDSAQGGRNTGISGILPGSLFRFAVPPALGSNLTDNVMITVDIIPSGWNSADGKSDKTKSAPSRDPERLQKIKESLLLEDSEEEEGDLCRICQMAAASSSNLLIEPCKCTGSLQYVHQDCMKKWLQAKINSGSSLEAVTTCELCKEKLELNLEDFDIHELHRAHANEQAEYEFISSGLYLVVLLHLCEQSFSDMMGNTNEPSTRVRFINLARTLQAHMEDLETSEDDSEEDGDHNRTFDIA
modifications: myristoylation signal at the N-terminus (membrane localisation)
notes: also called axotrophin; membrane-associated RING-CH protein VII; not shown: myristoylation signal of the pmyr library vector

Key:
[1] = biological target: T1, Sos-2xSpc-Vif fusion protein (negative control target protein, expressed from pADH-Sos-2xSpc-vif); experiment: Sos recruitment system in cdc25-2 yeast, growth at 37 C on galactose (FIG. 2 row B: GBP2+Sos-Vif)
T1 construct: Heterologous control bait in cdc25-2 yeast; also called Sos-Vif; SOS-Vif

[2] = biological target: T1, Sos-2xSpc-Vif fusion protein (negative …); experiment: Sos recruitment system in cdc25-2 yeast, growth at 37 C on galactose (FIG. 2 row D: MARCH7+SOS-Vif)

Row | Binder | binding result [1] | binding result [2]
1 | B1 | no binding | 
2 | B2 |  | no binding
